# Molecular target: HLA-A*11:01 (human)
# Test: REVEAL MHC-peptide binding assay, recombinant HLA-A*11:01
# Conditions: remark: other sources report otherwise
row,In Vitro Score (% of positive control peptide),Binder
1,4.1,WVKRGNKKL [… (SEQ ID NO: 76)]
2,61.3,IFWVQRGAK [… (SEQ ID NO: 82)]
3,56.5,IIFWVQRGA [… (SEQ ID NO: 81)]
4,67.5,IFWVQRGNK [… (SEQ ID NO: 86)]
5,61.1,IFWVKRGLK [… (SEQ ID NO: 62)]
6,36.6,IFWVHRGRK [… (SEQ ID NO: 41)]
7,72.8,IIFWVQRGR [… (SEQ ID NO: 53)]
8,2.8,WVKRGHKKL [… (SEQ ID NO: 68)]
9,47.9,IFWVKRGSK [… (SEQ ID NO: 58)]
10,51.8,AFIIFWVAR [… (SEQ ID NO: 45)]
11,34.9,AFIIFWVHR [… (SEQ ID NO: 38)]
12,30.9,IFWVKRGHK [… (SEQ ID NO: 66)]
13,10.7,WVQRGNKKL [… (SEQ ID NO: 88)]
14,34.9,IFWVARGRK [… (SEQ ID NO: 47)]
15,77.5,IIFWVHRGR [… (SEQ ID NO: 40)]
16,0.9,FIIFWVHRG [… (SEQ ID NO: 39)]
17,45.9,IFWVKRGNK [… (SEQ ID NO: 74)]

row,In Vitro Score (% of positive control peptide),Binder
1,54.5,IIFWVKRGR [… (SEQ ID NO: 19)]
2,109,VAFIIFWVK [… (SEQ ID NO: 16)]
3,35.2,IIFWVLRGR [… (SEQ ID NO: 33)]
4,13.8,WVARGRKKL [… (SEQ ID NO: 49)]
5,70.6,IIFWVARGR [… (SEQ ID NO: 46)]
6,54,AFIIFWVSR [… (SEQ ID NO: 24)]
7,128,IFWVQRGRK [… (SEQ ID NO: 54)]
8,32.4,IIFWVKRGL [… (SEQ ID NO: 61)]
9,22.6,IIFWVKRGA [… (SEQ ID NO: 69)]
10,4.6,WVKRGAKKL [… (SEQ ID NO: 72)]
11,11.8,WVKRGSKKL [… (SEQ ID NO: 60)]
12,25.1,VAFIIFWVS [… (SEQ ID NO: 23)]
13,69.7,IFWVKRGAK [… (SEQ ID NO: 70)]
14,12.8,WVQRGRKKL [… (SEQ ID NO: 56)]
15,42.1,IIFWVKRGN [… (SEQ ID NO: 73)]
16,68.9,IIFWVSRGR [… (SEQ ID NO: 26)]

# Molecular target: HLA-B*08:01 (human)
# Test: REVEAL MHC-peptide binding assay, recombinant HLA-B*08:01
# Conditions: remark: other sources report otherwise
row,In Vitro Score (% of positive control peptide),Binder
1,65.9,WVKRGNKKL [… (SEQ ID NO: 76)]
2,0.2,IFWVQRGAK [… (SEQ ID NO: 82)]
3,0.2,IIFWVQRGA [… (SEQ ID NO: 81)]
4,0.1,IFWVQRGNK [… (SEQ ID NO: 86)]
5,58.3,IFWVKRGLK [… (SEQ ID NO: 62)]
6,0.1,IFWVHRGRK [… (SEQ ID NO: 41)]
7,0.4,IIFWVKRGS [… (SEQ ID NO: 57)]
8,0.1,IIFWVQRGR [… (SEQ ID NO: 53)]
9,47.6,WVKRGHKKL [… (SEQ ID NO: 68)]
10,1.2,IFWVKRGSK [… (SEQ ID NO: 58)]
11,0.2,AFIIFWVAR [… (SEQ ID NO: 45)]
12,0,IFWVSRGRK [… (SEQ ID NO: 27)]
13,3.2,IFWVKRGHK [… (SEQ ID NO: 66)]
14,32,WVQRGNKKL [… (SEQ ID NO: 88)]
15,0,IFWVARGRK [… (SEQ ID NO: 47)]
16,0.2,IIFWVHRGR [… (SEQ ID NO: 40)]
17,0.2,FIIFWVHRG [… (SEQ ID NO: 39)]

row,In Vitro Score (% of positive control peptide),Binder
1,0.1,IFWVKRGNK [… (SEQ ID NO: 74)]
2,0,IIFWVKRGR [… (SEQ ID NO: 19)]
3,0.3,VAFIIFWVK [… (SEQ ID NO: 16)]
4,0.4,IIFWVLRGR [… (SEQ ID NO: 33)]
5,32.4,WVARGRKKL [… (SEQ ID NO: 49)]
6,0.3,IIFWVARGR [… (SEQ ID NO: 46)]
7,0,IFWVQRGRK [… (SEQ ID NO: 54)]
8,1.7,IIFWVKRGL [… (SEQ ID NO: 61)]
9,0.9,IIFWVKRGA [… (SEQ ID NO: 69)]
10,34.1,WVKRGAKKL [… (SEQ ID NO: 72)]
11,56.1,WVKRGSKKL [… (SEQ ID NO: 60)]
12,0.1,VAFIIFWVS [… (SEQ ID NO: 23)]
13,2.2,IFWVKRGAK [… (SEQ ID NO: 70)]
14,45.1,WVQRGRKKL [… (SEQ ID NO: 56)]
15,0.9,IIFWVKRGN [… (SEQ ID NO: 73)]
16,0,IIFWVSRGR [… (SEQ ID NO: 26)]
